Assays:
[1] = target: T1, Human CD127 (IL-7 receptor alpha chain) expressed on cells (human, UniProt P16871 21-459); assay: cell-based or functional assay
T1 chain: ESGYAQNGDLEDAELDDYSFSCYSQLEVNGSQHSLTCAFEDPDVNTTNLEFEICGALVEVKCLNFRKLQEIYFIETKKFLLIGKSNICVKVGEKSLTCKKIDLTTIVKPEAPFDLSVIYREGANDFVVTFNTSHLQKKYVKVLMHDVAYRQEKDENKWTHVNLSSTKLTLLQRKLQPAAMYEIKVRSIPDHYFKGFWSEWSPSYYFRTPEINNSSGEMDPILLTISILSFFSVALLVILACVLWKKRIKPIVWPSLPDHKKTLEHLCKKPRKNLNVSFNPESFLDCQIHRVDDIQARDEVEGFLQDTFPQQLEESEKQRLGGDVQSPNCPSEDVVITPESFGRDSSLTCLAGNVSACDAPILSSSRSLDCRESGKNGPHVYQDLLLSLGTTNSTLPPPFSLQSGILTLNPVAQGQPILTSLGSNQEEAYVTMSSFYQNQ

[2] = target: T2, Recombinant hCD127 (Sino Biologicals, reference 10975-H08H) (human, UniProt P16871 21-239); assay: ELISA on immobilised recombinant hCD127; antibody stored 7 days at 37 °C
T2 construct: Bought protein; also called recombinant hCD127 antigen; rCD127
T2 chain: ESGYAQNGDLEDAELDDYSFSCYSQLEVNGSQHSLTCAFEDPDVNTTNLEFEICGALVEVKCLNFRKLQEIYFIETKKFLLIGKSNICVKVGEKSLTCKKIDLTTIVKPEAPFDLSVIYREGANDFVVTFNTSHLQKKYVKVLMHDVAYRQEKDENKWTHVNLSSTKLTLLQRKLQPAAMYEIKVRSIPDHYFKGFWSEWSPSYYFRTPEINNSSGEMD
Description: (§1) FIG. 15. Stability assay of humanized versus Rat anti-CD127 antibodies. Antibody concentrations was measured by ELISA after 7 days at 37° C. (Rat N13B2 wt (+) or humanized N13B2 h3 (square)) and at −80° C. (Rat N13B2 wt (X) or humanized N13B2 h3 (triangle)) and after four frost/defrost events (diamonds).
(§2) Humanized and chimeric purified N13B2-G1 were incubated at 37° C. or at −80° C. for 7 days. Two assays were used to measure stability of antibody: binding anti-CD127 by ELISA assay, and aggregate formation by gel filtration. For activity ELISA assay, recombinant hCD127 (Sino Biologicals, Beijing, China; reference 10975-H08H) was immobilized on plastic at lpg/ml and dilutions of supernatant were added to measure binding. […] For analysis of aggregate formation, sample was analysed on gel filtration chromatography column (Superdex 200, 10/300GL, GeHealthcare) to separate and evaluate aggregate and monomer from samples.

[3] = target: T2, Recombinant hCD127 (Sino Biologicals, …); assay: ELISA on immobilised recombinant hCD127; antibody stored 7 days at -80 °C
Description: as §1, §2

[4] = target: T3, Recombinant CD127 Fc Chimera (10975-H03H, Sino Biological) (human, UniProt P16871 21-239); assay: ELISA, human CD127Fc coated, revealed with anti-human kappa antibody; printed as ED 50
T3 construct: Bought protein; also called hCD127-Ig; human CD127Fc; not shown: constant fragment of an immunoglobulin
T3 chain: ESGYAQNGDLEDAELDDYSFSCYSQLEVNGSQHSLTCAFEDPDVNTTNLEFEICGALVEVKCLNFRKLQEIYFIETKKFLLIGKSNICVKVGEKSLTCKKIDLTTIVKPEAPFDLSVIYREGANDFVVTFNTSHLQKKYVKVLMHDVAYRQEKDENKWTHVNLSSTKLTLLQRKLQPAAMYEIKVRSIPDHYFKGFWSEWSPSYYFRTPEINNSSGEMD

[5] = target: T2, Recombinant hCD127 (Sino Biologicals, …); assay: ELISA on immobilised recombinant hCD127; antibody after four frost/defrost events
[6] = target: T2, Recombinant hCD127 (Sino Biologicals, …); assay: ELISA on coated recombinant hCD127, anti-human kappa detection; antibody stored 7 days at 37 °C; printed as ED 50
Description: as §1, §2

[7] = target: T2, Recombinant hCD127 (Sino Biologicals, …); assay: ELISA on coated recombinant hCD127, anti-human kappa detection; antibody stored 7 days at -80 °C; printed as ED 50
Description: as §1, §2

[8] = target: T2, Recombinant hCD127 (Sino Biologicals, …); assay: ELISA on coated recombinant hCD127, anti-human kappa detection; antibody after 4 frost/defrost events; printed as ED 50

B1: N13B2-h3 (humanized N13B2) (antibody, IgG4, V domains shown)
VH: QVQLVESGGGLVKPGGSLRLSCAVSGFTLSDYYMAWIRQAPGKGLEWVSTISASGLRTYYPDSVKGRFTISRDNAKNSLYLQMNSLRAEDTAVYYCARPLSAHYGFNYFDYWGQGTLVTVSS
VL: EIVMTQSPATLSVSPGERATLSCRTSEDIYQGLAWYQQKPGQAPRLLIYSANTLHIGIPARFSGSGSGTEFTLTISSLQSEDFAVYYCQQYYDYPLAFGGGTKVEIK
notes: Variable regions only
- IC 50 of inhibition of IL7 induced P-STAT5 on T lymphocytes (0.1 ng/ml rhIL-7) [1]: 21.2 ng/mL
- EC50 (read off the curve) [2]: ~1 ng/mL
- EC50 (read off the curve) [3]: ~1 ng/mL
- EC50 [4]: 0.6 ng/mL
- EC50 (read off the curve) [5]: ~2 ng/mL
- EC50 [6]: 1.1 ng/mL
- EC50 [7]: 1.3 ng/mL
- EC50 [8]: 1.7 ng/mL
